Source: patent CN114651011A (dated 2022)
Numbering of substitutions follows the chain as printed.

B1: 单克隆抗体UMG1 (murine anti-human CD43 antibody produced by the hybridoma deposited as ICLC PD n°16001) (antibody, V domains shown)
VH: DVQLVESGGGLVQPGGSRKLSCVASGFTFSSFGMHWVRQAPEKGLEWVAYISSGSGNFYYVDTVKGRFTISRDNPKNTLFLQMTSLRSEDTAMYYCARSTYYHGSRGAMDYWGQGTSVTVSS
VL: QIALTQSPAIMSASPGEKVTMTCSASSSVSSMYWYQLKPGSSPRLLIYDTSKMASGVPIRFSGSGSGTSFSLTVSRVEAEDAATYYCQQWSSYPPITFGAGSKLELK
notes: Murine antibody, kappa light chain; the negative control is a murine IgG1; also called m-UMG1; mUMG1
B2: h-UMG1 (人源化UMG1单克隆抗体, H3-L4) (antibody, human IgG1, kappa, V domains shown)
VH: EVQLVESGGGLVQPGGSLRLSCVASGFTFSSFGMHWVRQAPGKGLEWVAYISSGSGNFYYVDTVKGRFTISRDNAKNSLYLQMNSLRAEDTAVYYCARSTYYHGSRGAMDYWGQGTLVTVSS
VL: QVVMTQSPAFLSVTPGEKVTITCSASSSVSSMYWYQLKPDQAPKLLIYDTSKMASGVPIRFSGSGSGTDFTFTVSSVEAEDAATYYCQQWSSYPPITFGGGTKVEIKR
notes: IgG1; also called h-UMG1单抗; 人源化单克隆抗CD43抗体
B3: ch-UMG1 (嵌合抗体, murine UMG1 variable regions on human IgG1 constant regions) (antibody, V domains shown)
VH: B1 VH
VL: QIALTQSPAIMSASPGEKVTMTCSASSSVSSMYWYQLKPGSSPRLLIYDTSKMASGVPIRFSGSGSGTSFSLTVSRVEAEDAATYYCQQWSSYPPITFGAGSKLELKR
notes: also called UMG1-CH; 嵌合单克隆抗体
B4: 人源化UMG1抗体 H2-L3 (antibody, IgG1, V domains shown)
VH: B2 VH with A49S
VL: QVVMTQSPAFLSVTPGEKVTITCSASSSVSSMYWYQQKPDQAPKLLIYDTSKMASGVPSRFSGSGSGTDFTFTISSLEAEDAATYYCQQWSSYPPITFGGGTKVEIK
notes: one of the 16 combinations of H1-4 with L1-4
B5: 人源化UMG1抗体 H2-L1 (antibody, IgG1, V domains shown)
VH: B2 VH with A49S
VL: EIVLTQSPATLSLSPGERATLSCSASSSVSSMYWYQQKPGLAPRLLIYDTSKMASGIPDRFSGSGSGTDFTLTISRLEPEDFAVYYCQQWSSYPPITFGQGTRLEIK
notes: as for B4
B6: 人源化UMG1抗体 H3-L1 (antibody, IgG1, V domains shown)
VH: B2 VH
VL: B5 VL
notes: as for B4
B7: 人源化UMG1抗体 H3-L2 (antibody, IgG1, V domains shown)
VH: B2 VH
VL: B5 VL with V3A, Q37L, D59I, I74V, L77V
notes: as for B4
B8: 人源化UMG1抗体 H3-L3 (antibody, IgG1, V domains shown)
VH: B2 VH
VL: B4 VL
notes: as for B4
B9: 人源化UMG1抗体 H4-L2 (antibody, IgG1, V domains shown)
VH: B2 VH with E1Q, L11V, A75S, S78T
VL: B5 VL with V3A, Q37L, D59I, I74V, L77V
notes: as for B4
B10: 人源化UMG1抗体 H1-L1 (antibody, IgG1, V domains shown)
VH: B2 VH with V23A, A49S
VL: B5 VL
notes: as for B4
B11: 人源化UMG1抗体 H1-L3 (antibody, IgG1, V domains shown)
VH: B2 VH with V23A, A49S
VL: B4 VL
notes: as for B4
B12: 人源化UMG1抗体 H4-L1 (antibody, IgG1, V domains shown)
VH: B2 VH with E1Q, L11V, A75S, S78T
VL: B5 VL
notes: as for B4
B13: 人源化UMG1抗体 H2-L2 (antibody, IgG1, V domains shown)
VH: B2 VH with A49S
VL: B5 VL with V3A, Q37L, D59I, I74V, L77V
notes: as for B4
B14: 人源化UMG1抗体 H1-L2 (antibody, IgG1, V domains shown)
VH: B2 VH with V23A, A49S
VL: B5 VL with V3A, Q37L, D59I, I74V, L77V
notes: as for B4
B15: 人源化UMG1抗体 H2-L4 (antibody, IgG1, V domains shown)
VH: B2 VH with A49S
VL: B4 VL with Q37L, S59I, I74V, L77V
notes: as for B4
B16: 人源化UMG1抗体 H4-L3 (antibody, IgG1, V domains shown)
VH: B2 VH with E1Q, L11V, A75S, S78T
VL: B4 VL
notes: as for B4
B17: 人源化UMG1抗体 H4-L4 (antibody, IgG1, V domains shown)
VH: B2 VH with E1Q, L11V, A75S, S78T
VL: B4 VL with Q37L, S59I, I74V, L77V
notes: as for B4
B18: 人源化UMG1抗体 H1-L4 (antibody, IgG1, V domains shown)
VH: B2 VH with V23A, A49S
VL: B4 VL with Q37L, S59I, I74V, L77V
notes: as for B4

Molecular target: T1, 人CD43 (human CD43, UMG1 epitope), endogenous on human cells, cell lines and tissues (human, UniProt P16150 20-400)
T1 construct: The cells carry the natural protein; also called UMG1表位; UMG1抗原
T1 sequence: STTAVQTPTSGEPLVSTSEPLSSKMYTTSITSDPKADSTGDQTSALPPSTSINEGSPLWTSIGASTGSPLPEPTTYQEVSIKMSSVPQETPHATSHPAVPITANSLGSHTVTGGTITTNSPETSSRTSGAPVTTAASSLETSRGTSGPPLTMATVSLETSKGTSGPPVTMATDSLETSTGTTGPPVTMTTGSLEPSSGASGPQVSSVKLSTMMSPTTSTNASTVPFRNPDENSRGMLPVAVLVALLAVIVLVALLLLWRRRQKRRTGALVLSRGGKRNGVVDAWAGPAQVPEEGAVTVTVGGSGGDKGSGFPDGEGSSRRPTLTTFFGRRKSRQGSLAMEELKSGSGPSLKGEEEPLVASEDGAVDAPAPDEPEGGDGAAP
Experiment: flow cytometry on PBMC of healthy donors, 1 μg/ml, FITC secondary antibody

| Binder | binding result |
| --- | --- |
| B1 | binds |

Molecular target: T2, 野生型肽 PPSTSINEGSPLWTS (aa 66-80 of human CD43), peptide of the epitope substitution scan (human)
T2 construct: also called wild-type peptide; 人CD43的线性表位，用于取代筛选
T2 peptide: PPSTSINEGSPLWTS
Experiment: substitution scan peptide microarray, antibody at 1, 10, 100 and 250 μg/ml

| Binder | binding result |
| --- | --- |
| B2 | binds |

Molecular target: T3, 重组人CD43细胞外部分 (aa 20-253), produced in E. coli, not glycosylated (human, UniProt P16150 20-253)
T3 construct: also called 重组人CD43分析物(aa 20-253); CD43的无糖基化细胞外部分
T3 sequence: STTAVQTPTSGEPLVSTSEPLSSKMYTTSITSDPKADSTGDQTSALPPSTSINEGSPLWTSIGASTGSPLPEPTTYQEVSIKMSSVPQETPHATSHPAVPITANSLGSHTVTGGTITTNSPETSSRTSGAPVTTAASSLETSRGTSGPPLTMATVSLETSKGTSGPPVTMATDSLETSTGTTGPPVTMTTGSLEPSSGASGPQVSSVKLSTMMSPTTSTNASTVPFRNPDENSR
Experiment: SPRi (PlexArray HT), antibody printed on the gold chip, recombinant CD43 aa 20-253 from E. coli as analyte, 25°C

| Binder | Kd [nM] |
| --- | --- |
| B2 | 99.4 |

Molecular target: T4, CD43#6 (CD43 with aa 64 to 78 deleted), expressed in HEK293T cells (human, UniProt P16150 20-400)
T4 construct: also called CD43克隆#6; 第五CD43变体; not shown: His tag (and GFP by the name of the vector pLenti-CMV-(insert)-Histag-GFP-2A-Puro)
T4 sequence: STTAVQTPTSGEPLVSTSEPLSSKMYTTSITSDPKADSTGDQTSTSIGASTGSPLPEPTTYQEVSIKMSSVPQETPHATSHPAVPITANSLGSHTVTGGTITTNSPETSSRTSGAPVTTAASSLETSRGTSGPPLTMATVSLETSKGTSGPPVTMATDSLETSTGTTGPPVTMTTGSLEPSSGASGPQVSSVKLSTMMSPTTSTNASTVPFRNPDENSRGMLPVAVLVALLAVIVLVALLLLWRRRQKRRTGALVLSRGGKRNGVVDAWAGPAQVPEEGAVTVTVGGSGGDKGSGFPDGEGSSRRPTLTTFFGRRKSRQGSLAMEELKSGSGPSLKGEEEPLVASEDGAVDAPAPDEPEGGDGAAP
Experiment: FACS with h-UMG1-PE on GFP-positive transfected HEK293T cells

| Binder | binding result |
| --- | --- |
| B2 | no binding (tested: 1μg/ml) |

Molecular target: T1, 人CD43 (human CD43, UMG1 epitope), …
Experiment: immunofluorescence on fixed THP-1-derived macrophages without or with PANC1 cells

| Binder | binding result |
| --- | --- |
| B3 | binds |

Molecular target: T1, 人CD43 (human CD43, UMG1 epitope), …
Experiment: flow cytometry (MFI) on HPB-ALL and H9 cells, 1 μg/ml, FITC mouse anti-human IgG

| Binder | binding result |
| --- | --- |
| B4 | binds |
| B5 | binds |
| B6 | binds |
| B7 | binds |
| B8 | binds |
| B9 | binds |
| B10 | binds |
| B11 | binds |
| B12 | binds |
| B13 | binds |
| B14 | binds |
| B15 | binds |
| B16 | binds |
| B17 | binds |
| B18 | binds |
